From patent publication US20240026407A1, “MODIFICATION OF SAPONINS” (GLAXOSMITHKLINE BIOLOGICALS SA, priority 2020, published 2024)

B1: 868 (protein, listed as Dictyoglomus thermophilum)
chain: MKLEYKIPYRIERGEQTNFSPLFIRIISQGGKQMEKDIKKLISQMTLEEKASLCSGLDFWHTKPIERLGIPSIRMSDGPHGLRKEETMFSKTVPATCFPTAVTIAASWDKLLAEKMGKAIGEECQAENVQILLGPGINMKRSPLCGRNFEYYSEDPILAGELAAHFIKGVQSQGVGTSLKHFAANNQEHRRLTVDAIIDERTLREIYLTAFEKAVKEAKPWTVMCSYNKVNGTYASENEFLLTKVLREEWGFEGFVVSDWGAVNDRVKGLAAGLDLQMPYDGGNGDKKIIEAVKSGKLPEEVLDRAVERILKIVFKAIENKKENATYDKEAHHKLAREIARECFVLLKNENNILPLKKEGKIALIGAFAKKPQIQGGGSAHVNPTRVDDAVEEIKKLVGDKVEILYADGYHIEKDDVDEKLIEEAKEIAKKADVVVIFAGLPERYESEGFDRPHMKMPESHNRLIEEVAKVNSNLVVVLSNGAPIEMPWVDKPKAILETYRGGQAWGGAVADVLFGVVNPSGKLPESFPKKLSDNPSYLFFPGEDDRSEYREGIFIGYRYYDKKEMEVLFPFGYGLSYTTFEYSDLKLDKKEMKDDEVLKVSVKVKNTGKVKGKEIVQLYVRDVKSNYIRPEKELKGFEKVELEPGEEKEVVFYLDKRAFAFYNIDIKDWYVEDGEFEILIGKSSRDIVLKDKVFVKSTTKIKRHYHINSTIGDIMSDPEASAKFKHILEQFASAFPAFSSEEAIMNFAEMMKYMPLRNLIHFGQGKFTEEMLENLLKEINS
B2: 826 (protein)
chain: MSDYPSVNDLTLEEKAALTSGTNPWSLGNVAAKGLPNYTITDGPHGLRKAQNTESMDVEENVPATCFPPAAGMACSWNPELVERVGEAMGEECIQEQVAVILGPGVNIKRNPLGGRCFEYWSEDPYLAGHTAVGIVKGVQSKGVGTSLKHFAANNQETDRLRISATISPRAMREIYLPAFEYIVKTAQPWTVMCSYNKINGVFSSQNRWLLTDVLRGEWGFKGIVMSDWGAVSDRVAALNAGLNLEMPPSNTDDQIVAAAKDGRIPAAQLDEMAQGMIDLVAKARPAMSRDGYRYDVDAHNEVARQAAVESMVLLKNEDATLPVAKGAKIAVIGEFARTPRYQGAGSSLINPTKLTSFLDAIEERGVAADFAPGFTLDDAAQDPALTEQAVTAAQQADVVLLFLGLPAAYESEGFDRTTLDIPAKQVEVLDAVAAANPNVAVVLSNGSVVSMPWRGRAKAILETWLLGQAGGAALADVIFGDETPSGKLAQTIIDDVNDDPSAMNWPGEEGHVDYGEGVFVGYRYHDTFRKQVTYPFGYGLSYATFDVHDATVAKTGPRTAEVTVTVTNTSDVAGAETVQVYVAPPKAKVARPVHELKGFAKVALEPGESKNVTIALDDRAFAYWSERFDDWHVEGGTYTVEVGVSSRDIVSRIDVEIDDDGKIMNLDEWSTFGEWLDDPIGAPILQHVLDDMAKEAGHPVIPDSALMVMFLRSMPLRSLSVILGEAGEQVAANLTEAYRKATA
modifications: Bifidobacterium saeculare

Tests used:
Type in all cases: biochemical, Quillaja saponaria
[1] = Experiment 5-2: screening of additional glucosidases for deglycosylation with QS-18 in crude bark extract (80%) at pH 6 and 35 deg C; details: CBE 80%, pH 6, 35 deg C, 18 hours; UV HPLC
Outline: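 Clarified glucosidase lysate (prepared at pH 6) was incubated with pH 6-adjusted crude bark extract at 35 deg C with shaking for 18 hours. Reactions were quenched with MeCN containing 2% AcOH and hexanophenone, then analysed by UV HPLC.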

[2] = Experiment 5-3: screening of additional glucosidases for deglycosylation with QS-18 in treated bark extract (80%) at pH 6 and 35 deg C; details: TBE 80% (QS-21 approx. 4 g/L), pH 6, 35 deg C; UV HPLC
Method: Experiment 5-1 was repeated, replacing CBE with Treated Bark Extract (TBE) at pH 6. TBE was prepared from CBE by PVPP treatment and concentration, to provide TBE with a QS-21 concentration of approximately 4 g/L. TBE was adjusted to pH 6 by dropwise addition of 2M NaOH with stirring.

[3] = Experiment 5-1: screening of additional glucosidases for deglycosylation with purified QS-18 (0.04 mg/ml) at pH 7.5 and 30 deg C; details: pH 7.5, 30 degrees C, 18 hours, LCMS/MS
Method: The 94 additional genes, together with positive control (DNA encoding SEQ ID No. 262) and negative control, were transformed, expressed, lysed and reacted in the same manner as described above for Experiment 4-1, except the reaction was incubated at 30 degrees C. for 18 hours.
Samples were analysed by LCMS/MS according to the procedure in Experiment 4-1.

Molecule	Experiment 5-2 % conv [1] [%]	Experiment 5-3 % conv [2] [%]	Experiment 5-1 % conv [3] [%]
B1	<0.5	<0.5	89.9
B2	0.8	1.4	86.9
